This is an account of results in the RNAGym collection of RNA variant scans (doi:10.7554/elife.80360).

The chains are these.
B1: CPEB3 Ribozyme (parent)
chain: GGGGGCCACAGCAGAAGCGUUCACGUCGCGGCCCCUGUCAGAUUCUGGUGAAUCUGCGAAUUCUGCUGU

The variants in the series derive from B1. Description: self-cleavage, relative activity (ratio to wild type); higher = more cleavage; co-transcriptional.
Turning to GGGGGCCACAGCUCAAGCGUUCACGUCGCGGCCCCUGUCAGAUUCUGGUGAAUCUGCGAAUUCUGCUGU, the self-cleavage was 0.351.
With GGGGGCCACAGCUGAAGCGUUCACGCCGCGGCCCCUGUCAGAUUCUGGUGAAUCUGCGAAUUCUGCUGU the figure was 0.422; with GGGGGCCACAGCUGAAGCGUUCACGACGCGGCCCCUGUCAGAUUCUGGUGAAUCUGCGAAUUCUGCUGU, 0.626.
For the variant GGGGGCCACAGCUGAAGCGUUCACGGCGCGGCCCCUGUCAGAUUCUGGUGAAUCUGCGAAUUCUGCUGU, the self-cleavage is 0.287.
For the variant GGGGGCCACAGCAAAAGCGUUCACGUCGCGGUCCCUGUCAGAUUCUGGUGAAUCUGCGAAUUCUGCUGU, the self-cleavage is 0.802.
Next, GGGGGCCACAGCAAUAGCGUUCACGUCGCGGCCCCUGUCAGAUUCUGGUGAAUCUGCGAAUUCUGCUGU: 0.424; GGGGGCCACAGCAAGAGCGUUCACGUCGCGGCCCCUGUCAGAUUCUGGUGAAUCUGCGAAUUCUGCUGU: 0.823; GGGGGCCACAGCUGAAGCGUUCACGUCGCGGCCCCUGUCAGAUUCUGGUGAAUCUGCGAAUGCUGCUGU: 0.299.
Regarding GGGGGCCACAGCUGAAGCGUUCACGUCGCGGCCCCUGUCAGAUUCUGGUGAAUCUGCGAAUCCUGCUGU, the self-cleavage stood at 0.278.
Turning to GGGGGCCACAGCUGAAGCGUUCACGUCGCGGCCCCUGUCAGAUUCUGGUGAAUCUGCGAAUUCUGGUGU, the self-cleavage came to 0.413.
Next, GGGGGCCACAGCAAAAGCGUUCACGUCGCGGCCCCUGUCAGAUUCUGGUGAAUCUGCGAAUUGUGCUGU: 0.73.
Regarding GGGGGCCACAGCAAAAGCGUUCACGUCGCGGCCCCUGUCAGAUUCUGGUGAAUCUGCGAAUUUUGCUGU, the self-cleavage came out at 0.98.
Consider GGGGGCCACAGCUGAAGCGUUCACGUCGCGGCCCCUGUCAGAUUUUGGUGAAUCUGCGAAUUCUGCUGU, for which the self-cleavage was found to be 0.904.
Next, GGGGGCCACAGCAAAAGCGUUCAGGUCGCGGCCCCUGUCAGAUUCUGGUGAAUCUGCGAAUUCUGCUGU: 0.148; GGGGGCCACAGCAAAAGCGUUCACGUCGCGGCCUCUGUCAGAUUCUGGUGAAUCUGCGAAUUCUGCUGU: 0.751; GGGGGCCACAGCUGAAGCGUUCACGUCGCGGCCCAUGUCAGAUUCUGGUGAAUCUGCGAAUUCUGCUGU: 0.197.
With GGGGGCCACAGCUGAAGCGUUCACGUCGCGGCCCUUGUCAGAUUCUGGUGAAUCUGCGAAUUCUGCUGU the figure was 0.826.
Take GGGGGCCACAGCAAAAGCGUUCACGUCGCGGCCCCUGUCAGAUUCUGGUGAAUGUGCGAAUUCUGCUGU: the self-cleavage is 0.312.
On to GGGGGCCACAGCAAAAGCGUUCACGUCGCGGCCCCUGUCAGAUUCUGGUGAAUUUGCGAAUUCUGCUGU, for which the self-cleavage came out at 0.755.
Take GGGGGCCACAGCUGAAGCGUUCACGUCGCGGCCCCUGUCAGAUUCUGGUGAAUCUGCGAAUUUUGCUGU: the self-cleavage amounted to 0.648.
Regarding GGGGGCCACAGCUGAAGCGUUCACGUCGCGGCCCCUGUCAUAUUCUGGUGAAUCUGCGAAUUCUGCUGU, the self-cleavage worked out at 0.333.
As for GGGGGCCACAGCAAAAGCGUUCACGUCGCGGCCCCUGUCAGAUUCUGGUGAAUCUGUGAAUUCUGCUGU, the self-cleavage was found to be 0.229.
With GGGGGCCACAGCUGAAGCGUUCACGUCGCGGCCCCUGUCAGAUUCUCGUGAAUCUGCGAAUUCUGCUGU the figure was 0.877; with GGGGGCCACAGCAAAAGCUUUCACGUCGCGGCCCCUGUCAGAUUCUGGUGAAUCUGCGAAUUCUGCUGU, 0.091; with GGGGGCCACAGCUGAAGCGUUCACGUCUCGGCCCCUGUCAGAUUCUGGUGAAUCUGCGAAUUCUGCUGU, 0.165.
With GGGGGCCACAGCAAAAGCGUUCACGUCGCGGCCCCUGUCAGAUUCUGGUGAAUCUGCGAAUUCUGCUGU the figure was 0.832.
Next, GGGGGCCACAGCAAAAGCGUUCACGUCGCGGCCCCUGUCAGAUUCUGGUGAAUCUGCGCAUUCUGCUGU: 0.343; GGGGGCCACAGCUGAAGCGUUCACGUCGCGGCCCCUGUCAGAUUCUGGUGAACCUGCGAAUUCUGCUGU: 0.357.
Regarding GGGGGCCACAGCUGAAGCGUUCACGUCGCGGCCCCUGUCAGAUUCUGGUGAAUCUGCGAAUUCUGCGGU, the self-cleavage was 0.827.
With GGGGGCCACAGCUGAAGCGUUCACGUCGCGGCCCCUAUCAGAUUCUGGUGAAUCUGCGAAUUCUGCUGU, the self-cleavage came to 0.184.
With GGGGGCCACAGCAAAAGCGUUCACGUCACGGCCCCUGUCAGAUUCUGGUGAAUCUGCGAAUUCUGCUGU, the self-cleavage stood at 0.147.
For the variant GGGGGCCACAGCAAAAGCGUUCACGUCUCGGCCCCUGUCAGAUUCUGGUGAAUCUGCGAAUUCUGCUGU, the self-cleavage came to 0.112.
Next, GGGGGCCACAGCUGAAGCGUUCACGUCGCGGCCCCUGUCAGAUUCUGGGGAAUCUGCGAAUUCUGCUGU: 0.901; GGGGGCCACAGCUGAAGCGUUCACGUCGCGGCCCCUGUCAGAUUCUGGAGAAUCUGCGAAUUCUGCUGU: 0.91; GGGGGCCACAGCUGAAGCGUUCACGUCGCGGCCCCUGUCAGAUUCUGGUGAAUCUUCGAAUUCUGCUGU: 0.348.
With GGGGGCCACAGCAAAAGCGUUCUCGUCGCGGCCCCUGUCAGAUUCUGGUGAAUCUGCGAAUUCUGCUGU the figure was 0.875.
Regarding GGGGGCCACAGCUGAAGCGUUCACGUCGCGGCCCCUGUCAGAUUCUGGUGAAUCCGCGAAUUCUGCUGU, the self-cleavage worked out at 0.403.
Next, GGGGGCCACAGCUGAAGCGUUCACGUCGCGGCCCCUGUCAGAUUCUGGUGAAUGUGCGAAUUCUGCUGU: 0.419; GGGGGCCACAGCUGAAGCGUUCACGUCGCGACCCCUGUCAGAUUCUGGUGAAUCUGCGAAUUCUGCUGU: 0.623; GGGGGCCACAGCAAAAGCGUUCACGUGGCGGCCCCUGUCAGAUUCUGGUGAAUCUGCGAAUUCUGCUGU: 0.116.
As for GGGGGCCACAGCUGAAGCGUUCACGUCGCGGCCCCUGUCAGAUUCUGGUGAAUCUGCCAAUUCUGCUGU, the self-cleavage was determined as 0.788.
With GGGGGCCACAGCUGAAGCGUUCACGUCGCGGCCCCUGUCAGAUUCUGGUGAAUCUGCUAAUUCUGCUGU the figure was 0.911; with GGGGGCCACAGCUGAAGCGUUCACGUCGCGGCCCCUGUCAGAGUCUGGUGAAUCUGCGAAUUCUGCUGU, 0.221.
With GGGGGCCACAGCAAAAGCGUUCACGUCGAGGCCCCUGUCAGAUUCUGGUGAAUCUGCGAAUUCUGCUGU, the self-cleavage stood at 0.23.
With GGGGGCCACAGCAAAAGCGUUCACGUCGGGGCCCCUGUCAGAUUCUGGUGAAUCUGCGAAUUCUGCUGU, the self-cleavage is 0.167.
As for GGGGGCCACAGCUGAAGCGUUCACGUCGCGGCCCCCGUCAGAUUCUGGUGAAUCUGCGAAUUCUGCUGU, the self-cleavage was 0.647.
As to GGGGGCCACAGCUGAAGCGUUCACGUCGCGGCCCCUGUCAGAUACUGGUGAAUCUGCGAAUUCUGCUGU, the self-cleavage came to 0.659.
Next, GGGGGCCACAGCAAAAGCGUUUACGUCGCGGCCCCUGUCAGAUUCUGGUGAAUCUGCGAAUUCUGCUGU: 0.17; GGGGGCCACAGCAAAAGCGUUAACGUCGCGGCCCCUGUCAGAUUCUGGUGAAUCUGCGAAUUCUGCUGU: 0.178.
With GGGGGCCACAGCAAAAGCGUUCACGUCGCGGCCCCUGUCAGUUUCUGGUGAAUCUGCGAAUUCUGCUGU the figure was 0.329.
With GGGGGCCACAGCAAAAGCGUUCACGUCGCGGCCCCUGUCAGGUUCUGGUGAAUCUGCGAAUUCUGCUGU the figure was 0.372.
For GGGGGCCACAGCUGAAGCGUUCACGUCGCGGCCCCUGUUAGAUUCUGGUGAAUCUGCGAAUUCUGCUGU, the self-cleavage is 0.422.
With GGGGGCCACAGCUGAAGCGUUCACGUCGCGGUCCCUGUCAGAUUCUGGUGAAUCUGCGAAUUCUGCUGU the figure was 0.862.
Next, GGGGGCCACAGCUGAAGCGUUCACGUCGCGGCCCCUGUCAGAUUCUGGUGAAUCUGAGAAUUCUGCUGU: 0.194; GGGGGCCACAGCAAAAGCGUUCACGUCGCCGCCCCUGUCAGAUUCUGGUGAAUCUGCGAAUUCUGCUGU: 0.281; GGGGGCCACAGCAAAAGCGUUCACGUCGCUGCCCCUGUCAGAUUCUGGUGAAUCUGCGAAUUCUGCUGU: 0.21.
With GGGGGCCACAGCUGAAGCGUUAACGUCGCGGCCCCUGUCAGAUUCUGGUGAAUCUGCGAAUUCUGCUGU the figure was 0.161; with GGGGGCCACAGCUGAAGCGUUGACGUCGCGGCCCCUGUCAGAUUCUGGUGAAUCUGCGAAUUCUGCUGU, 0.148; with GGGGGCCACAGCUGAAGCGUUUACGUCGCGGCCCCUGUCAGAUUCUGGUGAAUCUGCGAAUUCUGCUGU, 0.171.
Turning to GGGGGCCACAGCUGAAGCGUUCACGUUGCGGCCCCUGUCAGAUUCUGGUGAAUCUGCGAAUUCUGCUGU, the self-cleavage was 0.134.
Next, GGGGGCCACAGCUGAAGCGUUCACGUGGCGGCCCCUGUCAGAUUCUGGUGAAUCUGCGAAUUCUGCUGU: 0.155; GGGGGCCACAGCAAAAGCGUUCACGUCGCGGCCCGUGUCAGAUUCUGGUGAAUCUGCGAAUUCUGCUGU: 0.236; GGGGGCCACAGCAAAAGCGUUCACGUCGCGGCCCAUGUCAGAUUCUGGUGAAUCUGCGAAUUCUGCUGU: 0.202.
As to GGGGGCCACAGCUGAAGCGUUCACGUCGCGGCUCCUGUCAGAUUCUGGUGAAUCUGCGAAUUCUGCUGU, the self-cleavage was 0.894.
On to GGGGGCCACAGCUGAAGCGUUCACGUCGCGGCCCCUGUCAGAUUCUGAUGAAUCUGCGAAUUCUGCUGU, for which the self-cleavage amounted to 0.911.
With GGGGGCCACAGCUGAAGCGAUCACGUCGCGGCCCCUGUCAGAUUCUGGUGAAUCUGCGAAUUCUGCUGU, the self-cleavage amounted to 0.0602.
For the variant GGGGGCCACAGCAAAAGCGUUCACGUCGCGGCCCCUGUCAGAUUCUGGUGGAUCUGCGAAUUCUGCUGU, the self-cleavage was determined as 0.81.
With GGGGGCCACAGCUGAAGCGUUCACGUCGCGGCCUCUGUCAGAUUCUGGUGAAUCUGCGAAUUCUGCUGU the figure was 0.917.
Next, GGGGGCCACAGCAAAAGCGUUCACGUCGCGGCGCCUGUCAGAUUCUGGUGAAUCUGCGAAUUCUGCUGU: 0.414.
Turning to GGGGGCCACAGCAAAAGCGUUCACGUCGCGGCUCCUGUCAGAUUCUGGUGAAUCUGCGAAUUCUGCUGU, the self-cleavage came out at 0.747.
For the variant GGGGGCCACAGCUGAAGCGUUCACUUCGCGGCCCCUGUCAGAUUCUGGUGAAUCUGCGAAUUCUGCUGU, the self-cleavage came to 0.108.
Regarding GGGGGCCACAGCUGAAGCGUUCACCUCGCGGCCCCUGUCAGAUUCUGGUGAAUCUGCGAAUUCUGCUGU, the self-cleavage is 0.0789.
Next, GGGGGCCACAGCAAAACCGUUCACGUCGCGGCCCCUGUCAGAUUCUGGUGAAUCUGCGAAUUCUGCUGU: 0.175; GGGGGCCACAGCAAAAACGUUCACGUCGCGGCCCCUGUCAGAUUCUGGUGAAUCUGCGAAUUCUGCUGU: 0.134; GGGGGCCACAGCAAAAGCGUUCACGUCGCGGCCCCUGUCUGAUUCUGGUGAAUCUGCGAAUUCUGCUGU: 0.21.
On to GGGGGCCACAGCUGAAGCGUUCAGGUCGCGGCCCCUGUCAGAUUCUGGUGAAUCUGCGAAUUCUGCUGU, for which the self-cleavage amounted to 0.127.
As for GGGGGCCACAGCAAAAGCGUUCACGUCGCGGCCCCUGUCAGAUUCUGGUGAGUCUGCGAAUUCUGCUGU, the self-cleavage is 0.805.
Consider GGGGGCCACAGCUGAACCGUUCACGUCGCGGCCCCUGUCAGAUUCUGGUGAAUCUGCGAAUUCUGCUGU, for which the self-cleavage was determined as 0.116.
